{"source": "paper PMC9168619", "about": "(The Journal of Biological Chemistry, 2022)", "binders": {"B1": {"name": "Rae1 (natural protein, human (endogenous in HeLa), UniProt P78406 1-368, looked up)", "chain": "MSLFGTTSGFGTSGTSMFGSATTDNHNPMKDIEVTSSPDDSIGCLSFSPPTLPGNFLIAGSWANDVRCWEVQDSGQTIPKAQQMHTGPVLDVCWSDDGSKVFTASCDKTAKMWDLSSNQAIQIAQHDAPVKTIHWIKAPNYSCVMTGSWDKTLKFWDTRSSNPMMVLQLPERCYCADVIYPMAVVATAERGLIVYQLENQPSEFRRIESPLKHQHRCVAIFKDKQNKPTGFALGSIEGRVAIHYINPPNPAKDNFTFKCHRSNGTNTSAPQDIYAVNGIAFHPVHGTLATVGSDGRFSFWDKDARTKLKTSEQLDQPISACCFNHNGNIFAYASSYDWSKGHEFYNPQKKNYIFLRNAAEELKPRNKK", "notes": "Rae1, shuttling mRNA export factor"}}, "target": "T1, Nup98 (human (endogenous in HeLa), UniProt P52948 1-880)", "T1 construct": "Nup98, the N-terminal product of the autoproteolytic cleavage of the Nup98-Nup96 precursor", "T1 sequence (looked up)": "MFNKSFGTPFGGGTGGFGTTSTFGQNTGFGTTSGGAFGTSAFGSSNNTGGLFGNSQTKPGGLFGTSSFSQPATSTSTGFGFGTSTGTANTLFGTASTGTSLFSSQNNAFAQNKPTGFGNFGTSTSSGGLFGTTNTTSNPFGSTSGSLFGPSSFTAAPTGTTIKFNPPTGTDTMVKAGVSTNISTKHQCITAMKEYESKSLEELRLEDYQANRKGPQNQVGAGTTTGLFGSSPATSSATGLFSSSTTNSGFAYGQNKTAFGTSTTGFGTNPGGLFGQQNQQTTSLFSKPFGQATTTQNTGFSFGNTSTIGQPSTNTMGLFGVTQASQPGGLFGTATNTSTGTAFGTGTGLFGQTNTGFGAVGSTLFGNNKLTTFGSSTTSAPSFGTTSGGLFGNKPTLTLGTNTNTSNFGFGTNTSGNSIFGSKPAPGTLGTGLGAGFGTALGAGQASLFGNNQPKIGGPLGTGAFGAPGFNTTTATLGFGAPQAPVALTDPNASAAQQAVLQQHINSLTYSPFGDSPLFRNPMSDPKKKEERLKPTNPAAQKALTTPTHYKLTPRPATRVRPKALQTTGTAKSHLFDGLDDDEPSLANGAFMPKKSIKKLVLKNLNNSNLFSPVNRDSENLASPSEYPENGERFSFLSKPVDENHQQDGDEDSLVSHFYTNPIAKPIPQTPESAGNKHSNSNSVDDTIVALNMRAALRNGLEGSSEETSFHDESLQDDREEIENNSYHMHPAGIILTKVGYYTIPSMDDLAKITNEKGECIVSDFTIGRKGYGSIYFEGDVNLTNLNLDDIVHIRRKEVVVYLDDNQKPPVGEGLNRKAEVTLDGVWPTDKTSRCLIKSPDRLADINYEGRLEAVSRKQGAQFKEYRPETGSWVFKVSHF", "assay": "[…] 300 mM NaCl, 20 mM Hepes pH 7.4, 0.5% Triton X-100; +4 °C; […]", "details": "partners not purified"}
{"binder": "B1", "values": [{"measurement": "stoichiometry N", "value": "~1 Nup98:Rae1"}]}
